Patent publication US20080206232A1

How the values were obtained:
LXRα = test: cell-based or functional assay
SREBP1c = test: cell-based or functional assay

promoter activity of ABCA1-luc in transfected H2.35 hepatoma cells (LXRα) [fold] | luciferase activity of the FAS promoter reporter (FAS-700 luc) in transfected H2.35 hepatoma cells (SREBP1c) [fold] | luciferase activity of 4×LXRE-luc in transfected H2.35 hepatoma cells, with LXRα/RXR and LXR ligand (LXRα) [fold] | Substance
2 to 3 |  |  | Flag-PGC-1α
2 to 3 | 17 | > 240 | Flag-PGC-1β (from UniProt Q8VHJ7 1-1014)
